Substitutions are numbered along the chain they refer to. Values belong to the binder of their own block, whether it stands above or below them.
Assays:
[1] = biological target: T1, Tau peptide Start 417 Stop 436; assay: Pepscan ELISA on an array of linear 20-mer Tau 441 peptides; parameters: peptide ELISA signal (no name or unit printed): unit not given here
T1 peptide: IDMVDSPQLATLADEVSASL
Excerpt: (§1) An amino functionalized polypropylene support was obtained by grafting with a proprietary hydrophilic polymer formulation, followed by reaction with t-butyloxycarbonyl-hexamethylenediamine (BocHMDA) using dicyclohexylcarbodiimide (DCC) with N-hydroxybenzotriazole (HOBt), and subsequent cleavage of the Boc-groups using trifluoroacetic acid (TFA). Standard Fmoc-peptide synthesis was used to synthesize peptides on the amino-functionalized solid support by custom modified JANUS liquid handling stations (Perkin Elmer). Synthesis of structural mimics was done using Pepscan's proprietary Chemically Linked Peptides on Scaffolds (CLIPS) technology. CLIPS technology allows to structure peptides into single loops, double loops, triple loops, sheet-like folds, helix-like folds, and combinations thereof. CLIPS templates are coupled to cysteine residues. The side-chains of multiple cysteines in the peptides are coupled to one or two CLIPS templates. For example, a 0.5 mM solution of the P2 CLIPS (2,6-bis(bromomethyl)pyridine) is dissolved in ammonium bicarbonate (20 mM, pH 7.8)/acetonitrile (1:3 (v/v)). This solution is added onto the peptide arrays. The CLIPS template will bind to side-chains of two cysteines as present in the solid-phase bound peptides of the peptide-arrays (455 wells plate with 3 μl wells). The peptide arrays are gently shaken in the solution for 30 to 60 minutes while completely covered in solution. Finally, the peptide arrays are washed extensively with excess of H₂O and sonicated in disrupt-buffer containing 1% SDS/0.1% beta-mercaptoethanol in PBS (pH 7.2) at 70° C. for 30 minutes, followed by sonication in H₂O for another 45 minutes. The T3 CLIPS carrying peptides were made in a similar way but now with three cysteines.
(§2) The binding of antibodies (recombinantly expressed as IgG2a) to each of the synthesized peptides was tested in a pepscan-based ELISA. The peptide arrays were incubated with primary antibody solution (overnight at 4° C.). After washing, the peptide arrays were incubated with a 1/1000 dilution of an appropriate antibody peroxidase conjugate (SBA; Table 4) for one hour at 25° C. After washing, the peroxidase substrate 2,2′-azino-di-3-ethylbenzthiazoline sulfonate (ABTS) and 20 μl/ml of 3 percent H₂O₂ were added. After one hour, the color development was measured.

[2] = biological target: T2, Tau peptide Start 415 Stop 434; assay: as above; parameters: peptide ELISA signal (no name or unit printed): unit not given here
T2 peptide: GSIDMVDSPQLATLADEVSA
Excerpt: as §1, §2

[3] = biological target: T3, Tau peptide Start 411 Stop 430; assay: as above; parameters: peptide ELISA signal (no name or unit printed): unit not given here
T3 peptide: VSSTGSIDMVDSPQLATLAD
Excerpt: as §1, §2

[4] = biological target: T4, Tau peptide Start 419 Stop 438; assay: as above; parameters: peptide ELISA signal (no name or unit printed): unit not given here
T4 peptide: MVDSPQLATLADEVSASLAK
Excerpt: as §1, §2

[5] = biological target: T5, Tau peptide Start 3 Stop 22 (Synthetic linear peptide immobilised on a Pepscan array; the attachment to the array cannot be carried by the letters.); assay: as above; parameters: peptide ELISA signal (no name or unit printed): unit not given here
T5 peptide: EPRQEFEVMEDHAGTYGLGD
Excerpt: as §1, §2

[6] = biological target: Tau peptide Start 1 Stop 20 (Synthetic linear peptide immobilised on a Pepscan array; the attachment to the array cannot be carried by the letters.); assay: as above; parameters: peptide ELISA signal (no name or unit printed): unit not given here
Excerpt: as §1, §2

[7] = biological target: T6, Tau peptide Start 422 Stop 441; assay: as above; parameters: peptide ELISA signal (no name or unit printed): unit not given here
T6 peptide: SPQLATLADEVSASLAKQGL
Excerpt: as §1, §2

[8] = biological target: T7, Tau peptide Start 413 Stop 432; assay: as above; parameters: peptide ELISA signal (no name or unit printed): unit not given here
T7 peptide: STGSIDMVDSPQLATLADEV
Excerpt: as §1, §2

[9] = biological target: T8, Tau peptide Start 421 Stop 440; assay: as above; parameters: peptide ELISA signal (no name or unit printed): unit not given here
T8 peptide: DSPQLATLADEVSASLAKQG
Excerpt: as §1, §2

[10] = biological target: T9, recombinant full-length tau 2N4R (control tau) (human, UniProt P10636 2-758); assay: direct ELISA, 10 ng/well coated control tau, hybridoma screening
T9 construct: also called recombinant WT (2N4R) tau; Rec; Tau
Procedure: Obtained hybridomas were seeded in 96-well plates and screened after 10 days in a direct ELISA on 25 ng/well coated PHF-tau as described below. Positive cells were tested for cross-reactivity on 10 ng/well coated with control tau (SEQ ID NO: 51) expressed in E. Coli BL21 cells and purified by heat treatment and ammonium sulphate precipitation. […] PT/66, PT/69 and hTau/60 were prioritized for V-region cloning and humanization.

Chain of Tau peptide Start 1 Stop 20 (Synthetic linear peptide immobilised on a Pepscan array; the attachment to the array cannot be carried by the letters.) (peptide, as listed by the source limits assumed): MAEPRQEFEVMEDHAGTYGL

peptide ELISA signal (no name or unit printed) [1]: 637
binding result [2]: no binding
peptide ELISA signal (no name or unit printed) [2]: 40
peptide ELISA signal (no name or unit printed) [3]: 29
peptide ELISA signal (no name or unit printed) [4]: 2090
peptide ELISA signal (no name or unit printed) [5]: 44
peptide ELISA signal (no name or unit printed) [6]: 38
peptide ELISA signal (no name or unit printed) [7]: 2930
binding result [8]: no binding
peptide ELISA signal (no name or unit printed) [8]: 38
peptide ELISA signal (no name or unit printed) [9]: 2880
binding result [10]: binds
B1: PT53 monoclonal antibody (recombinant, mouse IgG2a/kappa) (antibody, V domains shown)
VH: EVKLMESGGGLVQPGASLRLSCAASGFTFTDYYMSWVRQPPGKAPEWLALIRNKANGYTTKYAASVKGRFTISRDNSQNILYLQMNTLRAEDSATYYCVKAVWFAYWGQGTLVTVSA
VL: DIVITQDELSNPVTSGESVSISCRSSKSLLYKDGKTYLNWFLQRPGQSPQLLIYLMSTRASGVSDRFSGSGSGTDFTLEISRVKAEDVGVYYCLQLVEYPYTFGGGTKLEIKR
notes: also called PT50/PT53

peptide ELISA signal (no name or unit printed) [1]: 2800
binding result [2]: no binding
peptide ELISA signal (no name or unit printed) [2]: 78
peptide ELISA signal (no name or unit printed) [3]: 31
peptide ELISA signal (no name or unit printed) [4]: 2900
peptide ELISA signal (no name or unit printed) [5]: 45
peptide ELISA signal (no name or unit printed) [6]: 43
peptide ELISA signal (no name or unit printed) [7]: 2920
binding result [8]: no binding
peptide ELISA signal (no name or unit printed) [8]: 30
peptide ELISA signal (no name or unit printed) [9]: 2900
binding result [10]: binds
B2: PT81 monoclonal antibody (recombinant, mouse IgG2a/kappa) (antibody, V domains shown)
VH: QVQLQQPGAELVRPGASVILSCKASGYTFTNSWIHWVKQRPGRVLEWIGRIDPNSGGTRYNENFKSKATLTVDKPSSTAYMQLSSLTSEDSAVYFCSRGVLHDYWGQGTTLTVSS
VL: B1 VL with G69V, K84Q, L94Q

Reference: patent publication US20240150451A1 (Janssen / Centocor, published 2024)
